In publication PMC7617879:

Biological target: catalytic domain of MMP-14 (MMP-14CAT) (human)
Experiment: enzyme inhibition assay

B1: N-TIMP2-S31PrK, P16035 27-153 (domain or fragment)
chain: CSCSPVHPQQAFCNADVVIRAKAVSEKEVDKGNDIYGNPIKRIQYEIKQIKMFKGPEKDIEFIYTAPSSAVCGVSLDVGGKKEYLIAGKAEGDGKMHITLCDFIVPWDTLSTTQKKSLNHRYQMGCE
modifications: here or on the partner: propargyl lysine (PrK) at position 31
Ki: 1.57 nM
